Experiments:
[1] = biological target: MUC16 (CA125), native, membrane-bound on cancer cells (human) (UniProt Q8WXI7); test: cell-based or functional assay
[2] = biological target: MUC16 (CA125), native, membrane-bound on cancer cells (human) (UniProt Q8WXI7); test: flow cytometry on OVCAR3 cells, anti-FLAG detection
[3] = biological target: MUC16-targeted mesothelin-TR3 fusion protein (Meso-TR3) (human); test: cell-based or functional assay
Sequence of MUC16-targeted mesothelin-TR3 fusion protein (Meso-TR3) (human) (chain, as listed by the source limits assumed, form in doubt): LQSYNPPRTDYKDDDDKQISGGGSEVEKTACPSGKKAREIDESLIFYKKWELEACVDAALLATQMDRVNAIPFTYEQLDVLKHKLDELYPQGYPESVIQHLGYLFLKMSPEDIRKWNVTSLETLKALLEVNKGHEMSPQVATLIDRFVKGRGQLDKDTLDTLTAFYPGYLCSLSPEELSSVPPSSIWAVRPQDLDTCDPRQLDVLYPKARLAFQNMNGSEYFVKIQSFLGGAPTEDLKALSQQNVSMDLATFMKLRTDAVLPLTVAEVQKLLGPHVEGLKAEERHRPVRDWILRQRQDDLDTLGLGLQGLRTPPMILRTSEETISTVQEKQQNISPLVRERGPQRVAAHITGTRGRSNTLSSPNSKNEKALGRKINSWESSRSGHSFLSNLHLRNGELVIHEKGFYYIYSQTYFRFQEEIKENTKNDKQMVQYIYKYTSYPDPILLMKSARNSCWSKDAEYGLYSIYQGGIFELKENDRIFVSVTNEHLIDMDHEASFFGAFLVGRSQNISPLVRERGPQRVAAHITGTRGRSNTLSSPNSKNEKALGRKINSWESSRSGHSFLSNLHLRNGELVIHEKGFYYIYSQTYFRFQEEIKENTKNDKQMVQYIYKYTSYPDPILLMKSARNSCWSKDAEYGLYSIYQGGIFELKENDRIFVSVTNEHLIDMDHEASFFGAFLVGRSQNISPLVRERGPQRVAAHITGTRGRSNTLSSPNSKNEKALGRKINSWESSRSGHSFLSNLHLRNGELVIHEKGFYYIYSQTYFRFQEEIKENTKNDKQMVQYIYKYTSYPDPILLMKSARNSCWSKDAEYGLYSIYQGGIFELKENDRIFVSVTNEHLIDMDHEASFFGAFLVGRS

Sequence of MUC16-targeted mesothelin-TR3 fusion protein (Meso-TR3) (chain): as the sequence (chain, as listed by the source limits assumed, form in doubt) above

Substance: MUC16-targeted mesothelin-TR3 fusion protein (Meso-TR3)
- cell death of MUC16-positive OVCAR3 cells at the highest drug dose [1]: 65%
- cell killing of OVCAR3 cells by Meso-TR3, highest dose of soluble mesothelin competitor [1]: 40%
- cell killing of OVCAR3 cells by Meso-TR3, no competitor [1]: 80%
- fraction of MUC16-positive HeLa cells after Meso-TR3 treatment (flow cytometry) [1]: 54%
- fraction of MUC16-positive HeLa cells before Meso-TR3 treatment (flow cytometry) [1]: 80%

Substance: soluble, FLAG-tagged human mesothelin (secreted form, GPI signal sequence deleted) (from UniProt Q13421 37-598) (ligand)
- percent of cells positive for the FLAG epitope tag [2]: 100%

Substance: soluble death receptor 5 (DR5-Fc) (from UniProt O14763 56-182) (Fc fusion)
- cell death of OVCAR3 cells by Meso-TR3 at the highest DR5-Fc concentration [3]: < 10%
- cell death of OVCAR3 cells by Meso-TR3 in the absence of DR5-Fc [3]: 90%
